Measurements reported in patent US20250066499A1 (SUNSHINE GUOJIAN PHARMACEUTICAL SHANGHAI, published 2025).

T1: CD73 protein on the surface of tumor cells (human, UniProt P21589 27-549)
T1 construct: whole, on cells; also called CD73 on H1975 cells; CD73 on MDA-MB-231 cells
T1 sequence (looked up): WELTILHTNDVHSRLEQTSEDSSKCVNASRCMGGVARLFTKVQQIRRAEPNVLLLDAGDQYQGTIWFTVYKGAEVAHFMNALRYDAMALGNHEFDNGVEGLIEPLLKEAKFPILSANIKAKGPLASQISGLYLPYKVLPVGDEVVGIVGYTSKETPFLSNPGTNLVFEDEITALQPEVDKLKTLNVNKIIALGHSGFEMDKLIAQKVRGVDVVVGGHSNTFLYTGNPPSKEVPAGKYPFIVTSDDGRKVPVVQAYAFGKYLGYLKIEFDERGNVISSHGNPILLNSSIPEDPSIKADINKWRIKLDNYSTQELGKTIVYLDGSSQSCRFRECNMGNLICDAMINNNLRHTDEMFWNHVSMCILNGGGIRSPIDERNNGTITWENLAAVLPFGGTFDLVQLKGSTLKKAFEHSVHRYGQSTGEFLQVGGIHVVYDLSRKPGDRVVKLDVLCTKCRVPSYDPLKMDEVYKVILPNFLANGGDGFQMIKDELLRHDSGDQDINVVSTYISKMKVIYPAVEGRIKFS

T2: human CD73-His protein (human, UniProt P21589 27-549)
T2 construct: Expressed in HEK-293F with a signal peptide that is not specified; In the ELISAs it was biotinylated with EZ-Link NHS-Biotin (CD73-biotin) and captured on streptavidin; in SPR and the enzyme assay it was used as CD73-His; also called CD73-his antigen; CD73-biotin
T2 sequence: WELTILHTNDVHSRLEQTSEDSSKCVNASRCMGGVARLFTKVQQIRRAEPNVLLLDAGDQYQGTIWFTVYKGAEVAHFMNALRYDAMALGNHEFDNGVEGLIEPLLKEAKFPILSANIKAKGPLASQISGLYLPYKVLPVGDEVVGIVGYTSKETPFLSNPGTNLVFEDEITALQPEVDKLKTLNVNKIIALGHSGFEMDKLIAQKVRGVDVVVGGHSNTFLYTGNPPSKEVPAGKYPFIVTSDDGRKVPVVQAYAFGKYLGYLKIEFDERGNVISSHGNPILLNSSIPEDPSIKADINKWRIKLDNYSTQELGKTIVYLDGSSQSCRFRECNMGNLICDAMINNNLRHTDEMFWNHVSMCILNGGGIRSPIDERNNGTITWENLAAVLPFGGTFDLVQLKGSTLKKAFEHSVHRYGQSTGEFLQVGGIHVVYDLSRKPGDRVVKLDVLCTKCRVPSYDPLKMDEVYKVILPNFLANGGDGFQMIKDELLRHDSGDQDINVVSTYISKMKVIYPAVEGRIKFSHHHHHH

T3: cynomolgus monkey CD73 protein (cynomolgus monkey, UniProt A0A2K5V5U7 27-547)
T3 construct: Bought protein; also called CD73-cynomolgus monkey
T3 sequence: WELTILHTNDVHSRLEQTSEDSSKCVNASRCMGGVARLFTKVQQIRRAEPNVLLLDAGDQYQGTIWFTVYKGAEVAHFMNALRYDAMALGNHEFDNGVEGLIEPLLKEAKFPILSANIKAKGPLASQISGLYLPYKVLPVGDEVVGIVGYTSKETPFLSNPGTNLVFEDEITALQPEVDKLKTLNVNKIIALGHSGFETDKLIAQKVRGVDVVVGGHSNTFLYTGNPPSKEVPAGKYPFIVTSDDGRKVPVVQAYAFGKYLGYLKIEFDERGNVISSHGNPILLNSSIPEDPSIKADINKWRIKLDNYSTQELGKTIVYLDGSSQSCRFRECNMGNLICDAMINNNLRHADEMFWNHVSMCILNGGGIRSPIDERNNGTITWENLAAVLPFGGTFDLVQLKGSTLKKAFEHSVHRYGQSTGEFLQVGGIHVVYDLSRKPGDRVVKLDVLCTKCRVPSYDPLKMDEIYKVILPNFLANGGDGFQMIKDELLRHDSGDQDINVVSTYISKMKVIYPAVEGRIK

B1: 56B10-HuV31 (antibody, human IgG4, V domains shown)
VH: QVQLQQSGAEVKKPGASVKVSCKASGYTFTRYYIYWVRQRPGQGLEWIGWIYPGNFNTKYNEKFKGRATLTADTSASTAYMELSSLTSEDTAVYYCARDVYDYAGFAYWGQGTLVTVSS
VL: DIQLTQSPSFLSASVGDRVTITCKASQGVATAVAWYQQKPGQSPKLLIYWASTRHTGVPDRFSGSGSGTEFTLTISSLQPEDFATYYCQQYSSYPWTFGQGTKVEIK
notes: Humanized
B2: 48A11-HuV33 (antibody, human IgG4, V domains shown)
VH: QVQLVQSGAEVKKPGASVKVSCKASGYTFTSYWMHWVRQAPGQGLEWIGEINPSIGRTNYNEKFKSRVTLTRDTSTSTAYMELSSLRSEDTAVYYCARRVYGTMDYWGQGTLVTVSS
VL: DIQMTQSPSSLSASVGDRVTITCKASQDINSYLSWFQQKPGKSPKLLIYRANIWVDGVPSRFSGSGSGQDYTFTISSLQPEDIATYYCLQYDELYTFGQGTKVEIK
notes: Humanized

Legend:
[1] = biological target: T1, CD73 protein on the surface of tumor …; experiment: flow cytometry on H292 cells
Method: MDA-MB-231 cells (triple-negative breast cancer), H292 cells (human lung cancer cells), and A375 cells (human malignant melanoma cells), all in their logarithmic growth phase, were collected respectively. The cells were washed once with RPMI-1640 basic medium and then adjusted to a cell concentration of 2.0×10⁶ cells/mL in RPMI-1640 basic medium containing 1% BSA (antibody diluent). The antibodies to be tested were diluted in a 3-fold gradient using the antibody diluent, and 100 μL of each concentration of the test antibodies was mixed with 100 μL of cells in a 96-well cell culture plate and incubated at 4° C. for 1 hour (the maximum working concentration of the test antibodies was 500 nM, with 1×10⁵ target cells per well). The cells were washed twice with PBS to remove unbound test antibodies. Then, the cells were mixed with 200 μL of 5 μg/mL FITC-labeled goat anti-human IgG-Fc secondary antibody and incubated at 4° C. for 30 minutes. The cells were washed twice again with PBS to remove unbound secondary antibodies, and finally, the cells were resuspended in 200 μL of PBS. The binding affinity of the test antibodies to the cells was determined using a flow cytometer.

[2] = biological target: T2, human CD73-His protein; experiment: ELISA, biotinylated CD73-His on streptavidin plate
Method: The ELISA plates were coated with SA protein diluted to 1.5 μg/mL in coating buffer (50 mM carbonate coating buffer, pH 9.6) and incubated overnight at 4° C. The supernatant was discarded, and the plates were washed three times with PBST. Then, 5% skimmed milk powder prepared with PBS was added for blocking and the plates were incubated for 2 h at 37° C. After washing the plates once with PBST, CD73-biotin protein (prepared by biotinylating CD73-His protein according to the EZ-Link NHS-Biotin Reagent instructions) was diluted to 0.5 μg/mL and added at 100 μL/well for incubation at room temperature for 1 h. The plates were washed three times with PBST, and the prepared murine-derived monoclonal antibodies against human CD73 were serially diluted with 1% BSA buffer prepared with PBST and added to the ELISA plates at 100 μl/well. The plates were incubated at 37° C. for 1 h. After washing the plates three times with PBST, HRP-labeled goat anti-mouse IgG secondary antibody was added and the plates were incubated for 30 min at 37° C. After washing the plates three times with PBST, the residual droplets were patted dry on absorbent paper as much as possible. Then, 100 μl of TMB color developing solution was added to each well, and the plates were incubated in the dark at room temperature for 5 min for color development. Subsequently, 50 μl of 2M H₂SO₄ stop solution was added to each well to terminate the substrate reaction. The OD values were read at 450 nm using a multimode microplate reader to analyze the binding ability of the tested antibodies to the target antigen human CD73-His.
The binding affinity of various humanized antibodies to human CD73-his protein was measured with reference to Example 3.

[3] = biological target: T3, cynomolgus monkey CD73 protein; experiment: SPR Biacore 8K, antibody captured on Protein A/G, antigen in flow

Binder | EC50 [1] | EC50 [2] | Kd [3] | koff [3] | kon [3]
B1 | 2.55 nM | 0.079 nM | 7.13 nM | 0.000712 s⁻¹ | 99900 M⁻¹ s⁻¹
B2 | 2.31 nM | 0.069 nM | 12.1 nM | 0.000883 s⁻¹ | 72800 M⁻¹ s⁻¹
